# Measured values taken from US20230057622A1.
# Read-outs that look alike come from different tables or passages of the source.
# Legend:
# receptor on MCF-7 cells [1] = assay: cell-based or functional assay
# receptor on MCF-7 cells [2] = assay: cell-based or functional assay; remark: listed apart in the source
substance,measurement,setting,value
recombinant NRG polypeptide with an amino acid sequence of SEQ ID NO: 1 (from UniProt Q02297-11 122-190) (ligand),EC50,receptor on MCF-7 cells [1],0.924 nM
same,EC50,receptor on MCF-7 cells [2],1.65 nM
